Experimental data: US20190060394A1 (HONG KONG BAPTIST UNIVERSITY, published 2019)
Where no end group is shown, it is not given here. [ ]: non-standard residue; d: D form. Ahx = NCCCCCC(=O)O

Assays:
[1] = molecular target: bovine serum albumin (BSA) (bovine) (UniProt P02769); assay: luminescence titration, selectivity assay
[2] = molecular target: T1, Wild type EBNA1 protein (379-641 a.a.) fusing with glutathione S-transferase (Epstein-Barr virus, UniProt P03211 379-641); assay: luminescence titration in PBS buffer
T1 construct: Expressed in E. coli (BL21), purified on glutathione sepharose; also called WT-EBNA1; WT EBNA1; not shown: glutathione S-transferase (GST) fusion partner
T1 sequence: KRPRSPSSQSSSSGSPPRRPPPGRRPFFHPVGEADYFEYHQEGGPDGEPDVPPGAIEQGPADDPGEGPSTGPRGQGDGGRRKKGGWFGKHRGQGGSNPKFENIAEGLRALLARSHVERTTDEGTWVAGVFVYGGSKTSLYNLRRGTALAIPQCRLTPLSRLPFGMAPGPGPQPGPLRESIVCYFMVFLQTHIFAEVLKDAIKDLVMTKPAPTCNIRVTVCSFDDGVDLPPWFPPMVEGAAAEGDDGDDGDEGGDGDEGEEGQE

[3] = molecular target: T2, EBNA1 as present in the nucleus of EBV-positive cells (C666-1, NPC43, Raji) (Epstein-Barr virus, UniProt P03211 1-641); assay: cell-based or functional assay
T2 sequence: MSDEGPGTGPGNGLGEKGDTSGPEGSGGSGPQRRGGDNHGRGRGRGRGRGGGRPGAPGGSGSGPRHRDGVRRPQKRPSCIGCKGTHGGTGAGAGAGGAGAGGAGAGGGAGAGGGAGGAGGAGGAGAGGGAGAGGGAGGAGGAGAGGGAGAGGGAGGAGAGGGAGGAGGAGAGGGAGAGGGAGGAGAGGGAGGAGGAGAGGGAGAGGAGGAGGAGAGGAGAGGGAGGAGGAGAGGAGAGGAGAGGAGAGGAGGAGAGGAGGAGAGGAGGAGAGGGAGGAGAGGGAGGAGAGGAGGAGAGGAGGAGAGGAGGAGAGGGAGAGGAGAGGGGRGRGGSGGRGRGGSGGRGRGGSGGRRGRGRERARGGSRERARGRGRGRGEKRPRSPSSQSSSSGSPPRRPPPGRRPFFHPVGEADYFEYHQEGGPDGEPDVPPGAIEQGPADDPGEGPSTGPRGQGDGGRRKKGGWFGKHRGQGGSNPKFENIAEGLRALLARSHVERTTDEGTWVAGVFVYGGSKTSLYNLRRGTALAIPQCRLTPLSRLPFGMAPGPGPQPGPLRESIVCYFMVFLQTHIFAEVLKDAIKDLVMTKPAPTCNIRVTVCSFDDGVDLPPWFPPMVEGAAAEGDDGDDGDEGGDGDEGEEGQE

[4] = molecular target: T3, EBNA1-Y561A (EBNA1 379-641 GST fusion with point mutation Y561A) (Epstein-Barr virus, UniProt P03211 379-641); assay: luminescence titration, selectivity assay
T3 construct: Made by site-directed mutagenesis of the WT construct; not shown: glutathione S-transferase (GST) fusion partner
T3 sequence: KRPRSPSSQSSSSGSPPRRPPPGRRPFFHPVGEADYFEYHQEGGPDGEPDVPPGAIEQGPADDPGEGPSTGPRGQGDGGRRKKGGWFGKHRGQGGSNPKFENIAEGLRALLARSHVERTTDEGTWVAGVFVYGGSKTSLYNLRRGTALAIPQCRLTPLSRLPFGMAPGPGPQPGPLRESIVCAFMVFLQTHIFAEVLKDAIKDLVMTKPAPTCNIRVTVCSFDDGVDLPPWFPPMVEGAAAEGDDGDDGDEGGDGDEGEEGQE

[5] = molecular target: T4, EBNA1-M563A (EBNA1 379-641 GST fusion with point mutation M563A) (Epstein-Barr virus, UniProt P03211 379-641); assay: luminescence titration, selectivity assay
T4 construct: Made by site-directed mutagenesis of the WT construct; not shown: glutathione S-transferase (GST) fusion partner
T4 sequence: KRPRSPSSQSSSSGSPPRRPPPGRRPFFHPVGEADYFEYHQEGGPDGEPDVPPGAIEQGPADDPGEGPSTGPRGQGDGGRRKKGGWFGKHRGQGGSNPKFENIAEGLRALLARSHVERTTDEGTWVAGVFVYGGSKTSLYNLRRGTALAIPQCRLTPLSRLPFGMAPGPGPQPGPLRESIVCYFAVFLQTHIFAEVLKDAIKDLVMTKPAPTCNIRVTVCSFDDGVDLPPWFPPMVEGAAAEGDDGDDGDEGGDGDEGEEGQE

[6] = molecular target: T5, EBNA1-F565A (EBNA1 379-641 GST fusion with point mutation F565A) (Epstein-Barr virus, UniProt P03211 379-641); assay: luminescence titration, selectivity assay
T5 construct: Made by site-directed mutagenesis of the WT construct; not shown: glutathione S-transferase (GST) fusion partner
T5 sequence: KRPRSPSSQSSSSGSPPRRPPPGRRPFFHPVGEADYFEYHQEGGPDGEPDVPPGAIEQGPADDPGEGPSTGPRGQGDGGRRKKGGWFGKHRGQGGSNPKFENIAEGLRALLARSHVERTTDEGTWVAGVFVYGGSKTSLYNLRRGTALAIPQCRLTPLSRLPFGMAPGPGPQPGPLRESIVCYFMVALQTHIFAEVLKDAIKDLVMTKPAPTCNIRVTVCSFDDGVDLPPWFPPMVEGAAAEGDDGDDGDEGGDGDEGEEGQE

[7] = molecular target: T6, EBNA1-3A (EBNA1 379-641 GST fusion with YFMVF mutated to FFAVA) (Epstein-Barr virus, UniProt P03211 379-641); assay: luminescence titration, selectivity assay
T6 construct: also called EBNA1-3A mutant; mutant EBNA1; not shown: glutathione S-transferase (GST) fusion partner
T6 sequence: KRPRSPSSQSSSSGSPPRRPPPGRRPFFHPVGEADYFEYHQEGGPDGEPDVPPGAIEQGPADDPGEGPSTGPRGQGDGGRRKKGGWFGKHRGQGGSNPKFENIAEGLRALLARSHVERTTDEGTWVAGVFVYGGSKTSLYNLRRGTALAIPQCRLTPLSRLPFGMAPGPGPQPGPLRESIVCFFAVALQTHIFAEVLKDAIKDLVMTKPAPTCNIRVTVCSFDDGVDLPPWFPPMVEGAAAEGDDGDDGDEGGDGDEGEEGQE

[8] = molecular target: T1, Wild type EBNA1 protein (379-641 a.a.) …; assay: luminescence titration in PBS, same conditions as L2P4
[9] = molecular target: T1, Wild type EBNA1 protein (379-641 a.a.) …; assay: luminescence titration in PBS, double logarithm regression

bovine serum albumin (BSA) (bovine), sequence (P02769 25-607 limits assumed): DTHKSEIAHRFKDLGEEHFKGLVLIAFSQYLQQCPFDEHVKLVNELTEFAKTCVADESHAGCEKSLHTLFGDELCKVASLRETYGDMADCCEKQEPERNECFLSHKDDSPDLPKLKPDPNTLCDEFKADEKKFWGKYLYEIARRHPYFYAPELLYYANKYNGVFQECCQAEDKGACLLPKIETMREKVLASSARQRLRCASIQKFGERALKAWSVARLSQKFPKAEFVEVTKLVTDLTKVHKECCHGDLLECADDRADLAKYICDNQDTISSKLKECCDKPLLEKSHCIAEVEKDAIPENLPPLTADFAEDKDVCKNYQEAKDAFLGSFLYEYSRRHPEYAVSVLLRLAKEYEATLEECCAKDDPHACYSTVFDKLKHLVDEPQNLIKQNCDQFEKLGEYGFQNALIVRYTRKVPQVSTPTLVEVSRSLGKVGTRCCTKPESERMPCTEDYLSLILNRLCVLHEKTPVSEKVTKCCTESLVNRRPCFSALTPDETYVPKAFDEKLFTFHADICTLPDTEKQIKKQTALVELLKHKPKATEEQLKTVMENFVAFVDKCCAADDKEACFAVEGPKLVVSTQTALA

L2P4 (peptide conjugate: L2, 4-(4-(diethylamino)styryl)-N-carboxymethylpyridinium, coupled through an amide bond to peptide P4, CAhxYFMVFGGRrRK)
log Kassoc [1]: 4.7 log Kassoc

B1: L2P2 (peptide conjugate: L2 coupled to peptide P2, YFMVF) (peptide)
peptide: YFMVF-NH2
modifications: not fully specified (N-terminus); also: L2 dye coupled to the peptide, site not given here
notes: Fluorescent dye-peptide conjugate
binding result [2]: no binding

B2: L2P4 (peptide conjugate: L2, 4-(4-(diethylamino)styryl)-N-carboxymethylpyridinium, coupled through an amide bond to peptide P4, CAhxYFMVFGGRrRK) (peptide)
peptide: CXYFMVFGGRXRK
modifications: L2 (4-(4-(diethylamino)styryl)-N-carboxymethylpyridinium) coupled to the peptide through an amide bond; Ahx = 6-aminohexanoic acid (position 2); r = D-arginine (position 11); synthesised on Rink amide resin
notes: Fluorescent dye-peptide conjugate; also called formula (I)
in vitro emission intensity in the nucleus of EBV-positive C666-1 cells (confocal microscopy), L2P4 against L2P3 [3]: 3 fold over L2P3
log Kassoc [4]: 5.1 log Kassoc
log Kassoc [5]: 3.6 log Kassoc
log Kassoc [6]: 4.3 log Kassoc
log Kassoc [7]: 3.9 log Kassoc

B3: L2P3 (peptide conjugate: L2 coupled to peptide P3, CAhxRrRKGGYFMVF) (peptide)
peptide: C[Ahx]R[dR]RKGGYFMVF-NH2
modifications: not fully specified (N-terminus); printed as CAhxRrRKGGYFMVF; also: L2 dye coupled to the peptide, site not given here
notes: as for B1
increase in emission intensity (fold) [8]: 4.7 fold
binding ratio [9]: 1 probe : WT-EBNA1
